# Like-named read-outs stand apart in the source and are kept apart here.
# B1: anti-human IFNAR1 monoclonal antibody 7G4 (antibody, V domains shown)
# VH: QVQLQQPGAELVKPGAPVKLSCKASGYTFTSYWMNWVRQRPGRGLEWIGKIDPSDSETHFNQKFRDKATLTVDKSSTTAYIQLSSLTSEDSAVYYCARGGRISFDYDAALDYWGQGTSVTVSS
# VL: DILMTQSSSSFSVSLGDRVTITCKSSEVIYNRLAWFQQKPGNAPRLLISGATTLESGFPSRFSGSGSGKDYTLSITSLQIEDVSTYYCQQYWNKPFTFGSGTKLEVK
# notes: Mouse monoclonal antibody from hybridoma CGMCC No. 16286
# B2: anti-human IFNAR1 monoclonal antibody 10C5 (antibody, V domains shown)
# VH: QVQLQQPGTELVKPGSPVKLSCKASGYTFTSFWLNWVQQRPGRGLEWIGKIDPSDSEIRYNQKFKDKATLTVDKSSNTAYIQLSSLTSEDSAVYYCARGGGIYYDYDGAMDYWGQGTSVTVSS
# VL: DIQMTQSSSSFSVSLGDRLTITCKASEVIYNRLAWFQQKPGNAPRLLISGATSLETGVPSRFSGSGSRKDYTLSISSLQTEDVATYYCQQYWSSPFTFGSGTKLEIK
# notes: Mouse monoclonal antibody from hybridoma CGMCC No. 16287
# Legend:
# [1] = target: T1, human IFNAR1, full length (IFNAR1-aa1-557) (human, UniProt P17181 28-557); assay: cell-based or functional assay
# T1 sequence (looked up): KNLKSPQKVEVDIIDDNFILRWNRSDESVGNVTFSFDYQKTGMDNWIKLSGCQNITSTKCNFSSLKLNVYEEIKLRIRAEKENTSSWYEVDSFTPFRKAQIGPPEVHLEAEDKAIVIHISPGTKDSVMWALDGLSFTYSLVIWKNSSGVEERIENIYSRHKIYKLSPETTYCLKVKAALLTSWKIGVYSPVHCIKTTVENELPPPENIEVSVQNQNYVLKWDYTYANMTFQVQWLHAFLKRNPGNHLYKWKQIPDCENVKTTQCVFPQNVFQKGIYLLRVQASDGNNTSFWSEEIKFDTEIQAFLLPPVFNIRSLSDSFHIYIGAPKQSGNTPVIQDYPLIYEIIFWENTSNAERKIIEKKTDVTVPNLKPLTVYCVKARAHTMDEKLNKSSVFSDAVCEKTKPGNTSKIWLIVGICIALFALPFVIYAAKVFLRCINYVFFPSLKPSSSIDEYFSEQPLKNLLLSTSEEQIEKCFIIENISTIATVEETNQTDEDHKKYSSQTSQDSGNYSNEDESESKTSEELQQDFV
# [2] = target: T2, human/mouse chimeric IFNAR1 variant IFNAR1-m149-214 (human, with residues 149-214 replaced …, UniProt P17181 28-557); assay: flow cytometry, 293T cells overexpressing IFNAR1-m149-214, MFI
# T2 construct: expressed on 293T cells
# T2 chain: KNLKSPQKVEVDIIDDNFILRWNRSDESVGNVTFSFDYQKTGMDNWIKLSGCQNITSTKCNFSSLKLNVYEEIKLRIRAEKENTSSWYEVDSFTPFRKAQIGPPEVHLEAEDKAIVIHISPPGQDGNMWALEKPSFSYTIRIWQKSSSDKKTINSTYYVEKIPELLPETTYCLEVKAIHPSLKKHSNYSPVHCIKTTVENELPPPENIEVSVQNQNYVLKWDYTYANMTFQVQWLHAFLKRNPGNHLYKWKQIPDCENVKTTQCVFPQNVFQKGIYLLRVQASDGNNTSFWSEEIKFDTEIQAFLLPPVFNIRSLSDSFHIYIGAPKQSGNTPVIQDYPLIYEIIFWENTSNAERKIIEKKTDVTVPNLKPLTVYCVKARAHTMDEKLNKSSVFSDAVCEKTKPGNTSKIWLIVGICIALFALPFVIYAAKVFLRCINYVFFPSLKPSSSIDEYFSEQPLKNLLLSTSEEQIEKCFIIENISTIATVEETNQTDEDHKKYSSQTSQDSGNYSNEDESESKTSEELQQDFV
# Experimental: (§1) After the incubation, the cells were centrifuged and re-suspended with 200 μL of FACS buffer, before next centrifugation and re-suspension.
# (§2) PE-labeled goat anti-mouse IgG antibody (Biolegend) diluted in FACS buffer at 1:400 was added to each well. The cells were re-suspended and incubated at 4° C. for 30 min in the dark. After the incubation, the plate was centrifuged, the supernatant was discarded, and the cells were washed once as described above and re-suspended by adding 200 μL FACS buffer. Finally, the re-suspended cells were analyzed using a flow cytometer Guava (Millipore) for cellular GFP and PE signals.
# [3] = target: T2, human/mouse chimeric IFNAR1 variant …; assay: as above
# Experimental: as §1, §2
Binder,fold decrease in percentage of GFP positive reporter cells with serum from SLE patients [1],binding result [2],binding result [3]
B1,~3 fold,binds,–
B2,~3 fold,–,binds
